Measured values: publication PMC533864, “Selective inhibition of c-Myb DNA-binding by RNA polymers”

Experiments:
c-Myb NR1R2R3 = c-Myb NR1R2R3 (Homo sapiens, UniProt P10242 1-192); assay: EMSA; 20 mM Tris-HCl pH 8.0, 0.1 mM EDTA, 10% glycerol, 0.1 mM DTT, 0.005% Triton X-100, 50 mM NaCl, RNAguard 6-20 U, 20 uL, 25 C, 15 min; details: protein: recombinant; label: 32P
c-Myb R2R3 = c-Myb R2R3 (Homo sapiens, UniProt P10242 89-192); assay: as above; details: protein: recombinant; label: 32P
Chain of c-Myb R2R3 (P10242 89-192): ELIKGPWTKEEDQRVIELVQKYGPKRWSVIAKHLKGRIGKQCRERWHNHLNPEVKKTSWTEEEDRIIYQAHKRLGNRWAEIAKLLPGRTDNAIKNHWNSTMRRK

Chain of c-Myb NR1R2R3 (P10242 1-192): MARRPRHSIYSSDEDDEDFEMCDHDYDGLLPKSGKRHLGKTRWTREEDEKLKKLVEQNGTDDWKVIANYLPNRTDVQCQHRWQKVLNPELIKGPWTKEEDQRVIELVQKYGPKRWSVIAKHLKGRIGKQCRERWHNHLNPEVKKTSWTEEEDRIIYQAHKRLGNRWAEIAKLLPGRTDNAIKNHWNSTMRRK

B1: MRE probe (mim-1 promoter) (dsDNA)
DNA 1: GCATTATAACGGTTTTTTAGCGC
DNA 2: GCGCTAAAAAACCGTTATAATGC
- binding result (c-Myb NR1R2R3): binds
- binding result (c-Myb R2R3): binds
